Measurements reported in doi:10.1101/733147 (bioRxiv, 2020).
One block for each binder: values may come before it.

Biological target: T1, human ACVR2B.Fc fusion protein (human, UniProt Q13705)
T1 sequence: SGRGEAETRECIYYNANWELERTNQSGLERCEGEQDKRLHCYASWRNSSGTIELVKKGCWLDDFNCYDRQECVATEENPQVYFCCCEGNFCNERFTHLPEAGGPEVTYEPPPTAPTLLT
Assay: SPR

- binding result: binds
B1: Activin A.ΔD406 (ligand)
chain: GLECDGKVNICCKKQFFVSFKDIGWNDWIIAPSGYHANYCEGECPSHIAGTSGSSLSFHSTVINHYRMRGHSPFANLKSCCVPTKLRPMSMLYYDGQNIIKKDIQNMIVEECGCS

- binding result: binds
B2: Activin A (wild type, mature dimer) (ligand)
chain: GLECDGKVNICCKKQFFVSFKDIGWNDWIIAPSGYHANYCEGECPSHIAGTSGSSLSFHSTVINHYRMRGHSPFANLKSCCVPTKLRPMSMLYYDDGQNIIKKDIQNMIVEECGCS
